Earlier results as cited in patent publication US20090074843A1, “Use of epi-hne 1-4” (priority 2004, published 2009).

B1: SLPI: naturally occurring elastase inhibitor, serum protease inhibitor (protein, UniProt P03973 26-132, looked up)
Antileukoproteinase: SGKSFKAGVCPPKKSAQCLRYKKPECQSDWQCPGKKRCCPDTCGIKCLDPVDTPNPTRRKPGKCPVTYGQCLMLNPPNFCEMDGQCKRDLKCCMGMCGKSCVSPVKA

How the values were obtained:
[1] = chloramineT, up to 50 mol-equivalents
[2] = target: Human Plasma Factor Xa (Homo sapiens, UniProt P00742); details: Human Plasma Factor Xa vs Elastase
Sequence of Human Plasma Factor Xa (P00742 235-488 limits assumed): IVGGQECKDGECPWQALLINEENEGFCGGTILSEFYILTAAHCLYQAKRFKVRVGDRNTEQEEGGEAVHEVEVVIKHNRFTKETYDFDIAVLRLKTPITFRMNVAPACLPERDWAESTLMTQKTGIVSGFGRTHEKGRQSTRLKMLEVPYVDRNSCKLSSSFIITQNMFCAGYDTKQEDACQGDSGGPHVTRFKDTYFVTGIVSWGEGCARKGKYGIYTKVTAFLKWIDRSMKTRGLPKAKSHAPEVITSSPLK
Sequence of Human Plasma Factor Xa (P00742 41-179 partner limits assumed): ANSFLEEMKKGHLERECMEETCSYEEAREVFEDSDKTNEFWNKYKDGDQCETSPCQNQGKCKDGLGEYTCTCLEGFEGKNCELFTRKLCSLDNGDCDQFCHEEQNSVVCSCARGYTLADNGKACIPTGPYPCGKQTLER

[3] = target: Kallikrein (Homo sapiens, UniProt P03952); details: Human Serum Kallikrein vs Elastase
Sequence of Kallikrein (P03952 391-638 limits assumed): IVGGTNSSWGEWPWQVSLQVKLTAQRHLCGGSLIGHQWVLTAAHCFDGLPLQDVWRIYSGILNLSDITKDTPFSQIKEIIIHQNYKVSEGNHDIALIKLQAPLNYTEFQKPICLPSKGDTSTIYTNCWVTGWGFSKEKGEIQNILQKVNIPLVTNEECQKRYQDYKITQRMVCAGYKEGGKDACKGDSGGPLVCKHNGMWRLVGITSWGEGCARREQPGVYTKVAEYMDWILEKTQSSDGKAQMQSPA
Sequence of Kallikrein (P03952 20-390 limits assumed): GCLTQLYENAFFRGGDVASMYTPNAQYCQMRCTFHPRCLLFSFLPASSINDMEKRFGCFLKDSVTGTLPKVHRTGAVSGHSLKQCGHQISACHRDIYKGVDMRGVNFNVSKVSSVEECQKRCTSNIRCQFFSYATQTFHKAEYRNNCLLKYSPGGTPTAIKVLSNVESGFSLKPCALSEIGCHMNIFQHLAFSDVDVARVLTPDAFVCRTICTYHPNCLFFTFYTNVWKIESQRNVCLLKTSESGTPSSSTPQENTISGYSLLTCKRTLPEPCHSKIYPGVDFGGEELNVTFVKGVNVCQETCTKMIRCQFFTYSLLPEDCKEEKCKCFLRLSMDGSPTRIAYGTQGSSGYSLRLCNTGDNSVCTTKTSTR

[4] = target: Human Serum Plasmin (Homo sapiens, UniProt P00747); details: Human Serum Plasmin vs Elastase
Sequence of Human Serum Plasmin (P00747 581-810 limits assumed): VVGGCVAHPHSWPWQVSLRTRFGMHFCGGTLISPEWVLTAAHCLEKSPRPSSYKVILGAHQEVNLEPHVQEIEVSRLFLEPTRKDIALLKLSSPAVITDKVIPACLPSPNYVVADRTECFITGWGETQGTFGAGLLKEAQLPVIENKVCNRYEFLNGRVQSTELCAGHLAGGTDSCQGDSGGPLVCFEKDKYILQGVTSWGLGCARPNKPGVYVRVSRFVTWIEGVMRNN
Sequence of Human Serum Plasmin (P00747 98-580 partner limits assumed): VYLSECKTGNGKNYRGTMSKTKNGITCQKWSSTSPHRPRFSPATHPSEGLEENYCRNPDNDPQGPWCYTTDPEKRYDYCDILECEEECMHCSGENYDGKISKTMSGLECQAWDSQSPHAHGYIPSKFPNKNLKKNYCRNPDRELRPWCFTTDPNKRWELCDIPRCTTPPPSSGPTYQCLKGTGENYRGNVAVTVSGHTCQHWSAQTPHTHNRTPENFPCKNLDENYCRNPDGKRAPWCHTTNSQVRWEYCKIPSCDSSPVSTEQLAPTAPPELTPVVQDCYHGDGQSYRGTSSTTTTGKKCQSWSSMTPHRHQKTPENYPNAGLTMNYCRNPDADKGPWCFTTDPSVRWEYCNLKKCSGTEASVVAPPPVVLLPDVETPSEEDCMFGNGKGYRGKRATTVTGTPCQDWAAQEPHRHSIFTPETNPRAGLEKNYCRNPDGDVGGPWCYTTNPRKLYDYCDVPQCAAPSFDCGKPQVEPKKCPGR

[5] = target: Human Urine Urokinase (Homo sapiens, UniProt P00749); details: Human Urine Urokinase vs Elastase
[6] = target: Thrombin (Homo sapiens, UniProt P00734); details: Human Serum Thrombin vs Elastase
[7] = tested on: Human Pancreatic Chymotrypsin; details: Human Pancreatic Chymotrypsin vs Elastase
[8] = target: T1, human neutrophil elastase (Homo sapiens, UniProt P08246); details: comparison values
T1 sequence (P08246 30-267): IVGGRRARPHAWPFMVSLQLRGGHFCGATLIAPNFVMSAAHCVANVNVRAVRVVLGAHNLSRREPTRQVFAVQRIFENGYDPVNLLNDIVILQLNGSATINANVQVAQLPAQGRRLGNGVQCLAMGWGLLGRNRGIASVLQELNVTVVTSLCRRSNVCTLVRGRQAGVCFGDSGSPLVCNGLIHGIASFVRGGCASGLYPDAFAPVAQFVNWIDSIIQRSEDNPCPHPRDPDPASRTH

Row | Molecule | resistance to oxidation (retention of activity) [1] | selectivity in Ki values [2] | selectivity in Ki values [3] | selectivity in Ki values [4] | selectivity in Ki values [5] | selectivity in Ki values [6] | selectivity in Ki values [7] | Kd [8]
1 | AAT: naturally occurring elastase inhibitor, serum protease inhibitor [reference compound] | destroy the activity | – | – | – | – | – | – | –
2 | EPI-HNE4: 56 amino acid protein (SEQ ID NO: 1) derived from second Kunitz type domain of human inter-alpha-inhibitor light chain (ITI-D2); elastase inhibitor (EACNLPIVRGPCIAFFPRWAFDAVKGKCVLFPYGGCQGNGNKFYSEKECREYCGVP; P. pastoris; EPI-HNE4 N-terminal modified to facilitate secretion) | – | more than 10^6 | more than 10^6 | more than 10^6 | more than 10^6 | more than 10^6 | more than 10^6 | –
3 | B1 | destroy the activity | – | – | – | – | – | – | 100 nM
